# Laboratory results: patent publication US20240269256A1 (HDT BIO, published 2024)
# B1: AAA_G12 anti-EV-D68 VHH (recombinant VHH G12) (VHH)
# VHH: QVQLVESGGGLVQPGGSLRLSCLASGITFTVYRMAWYRQAPGRQRDLVAEVAPGGGTVAANSVKGRFTISRDSAKNTVDLQMNDLKPDDTAVYYCYARNLFTSGEYWGQGTQVTVSS
# Target: enterovirus D68 clade B2 virus (enterovirus D68)
# Experiment: cell-based or functional assay
binder,measurement,value
B1,"50% inhibitory concentrations (IC50), neutralization by real time cell analysis (RTCA) assay",~1 nM
